Assay results: the DeepSol protein solubility set

Assay: soluble on expression in E. coli; label from the status in PepcDB or PDB records

Sequence	soluble on expression in E. coli
MDEDTRLSRYLYLTDREHINVDSIKQLCKISDPNACYRCGCTALHEYFYNYRSVNGKYKYRYNGYYQYYSSSDYENYNEYYYDDYDRTGMNSESDNISIKTEYENEYEFYDETQDQSTQLVDYDIKLKTNEDDFVDEFYGYDRSVGVHDYIDVSINKVVYGRESHVRWRDIWQEHNDGVYSIGKECIDNIYEDRHTVDEFYKIDSVSDVDDAEHISQITNDVSTQTWEKKSELDRYMEMYPRHRYGKHSVFKGFSDKVRKNDLDMNVVKELLSNGASLTIKDSSNKDPIAVYFRRTIMNLEMIDIINKHTTIYERRYIVHSYLKNYRNFDYPFFRKLVLTNKHCLNNYYNISDSKYGTPLHILASNKKIITPNYMKLLVYNGNDINARGEDTQMRTPLHKYLCKFVYHNIEYGIRYYNEKIIDAFIELGADLTIPNDDGMIPVVYCIHSNAEYGYNNITNIKIIRKLLNLSRHASHNLFRDRVMHDYISNTYIDLECLDIIRSLDGYDINCYFEGRTPLHCAIQYNFTQIAEYLLDRGADISLKTDDGKTVFDLSLCSYIPLKWTSFLISRLPPKSVICSLTNHIIDYVLTNNRRIIWQSQMINKYVLLLDPSFYYRFRNAIENKLDQYNNRYNMFEHDRDVNEKYGKVLHDLDTYIKDVQVLKSTSITNNITLYDTIINNKSEFPIRRANDKQLINLIKSNTYHNLIEKVIKNTLEKYTLTNIVLEYMISSQSQSQSSYLSRIPNEILLEILYKLDMYDLRNLYTRYMRENDITEYHIENTRSVSTQT	not soluble
MSLDIKTLKGFKDYLPKDSLIRIHIVRQIFSVLNSYNFDLIDTPVLEYSDLLLKKSGDETEKQIYRFKDNGGRDVSMRFDLTVPFARFVATNISALKLPFRRSQFGKVFRGENSQKGRYREFMQFDFDIVGEDTFRGDAEILSVVYYGLEEIFLNFIEGINKKFIIHYSHIGILNSFFEKLGLKEKSIFILRNIDKIDKIGIDKVKEALLLEIEKEAVDSILSLVSLQGTFKDKIQALKSILGDNESIKRVEDVFQHLSLLKIQDSFNLNLKISRGLDYYTGIVFESEVFGSNMGSVCSGGRYDNLVSSFSNSIQKISGVGGSFGVDRIKDIIDLEKFSYIKIFVTKARSKVLIVNLDSALQNYYYELATRFRNHDYSKVKNISCEVYFKNKNGKNIKEQIEYALSKEIRFLVFVGQEEYKENKMKVRDLTKKEELLLSFEESINLIKCNEKLEGHHHHHH	soluble
MAHHHHHHMHAVPKDDAEAPLSNTESRGRVALIDTSGYASDMNISAFVPQHAMKPYRVLAAMEIVRSLKIDAHCRTVVPPLVKVEELMAYHTDTYLANLGLHSCRSWLWNAETSKVFFSGDCPPVEGLMEHSIATASGTLMGAVLLNSGQVDVAVHWGGGMHHSKCGECSGFCYVNDIVLGILELLKCHDRVLYVDIDMHHGDGVDEAFCTSDRVFTLSLHKFGESFFPGTGHPRDVGYGRGRYYSMNLAVWDGITDFYYLGIFEHALHSIVRRYSPDAIVLQCGADSLAGDRLGLLNLSSFGHGQCVQAVRDLGIPMLALGGGGYTIRNVAKLWAYETSILTGHPLPPNTVLPVAEMPLSGWLFQDSPLLIVAQDRSNHVLPGLHCQRAYQMMTEQIDRHVPHIQPHPRLQKAFTAAEAADKQVEDGTTAVEDFK	not soluble
ANATKNTPSEDQQLANIIETHEAFYLKSSPFNQPEVIGNNAKLPDLSADFLLAQYQQGLAIYQQLIALDNEKLTQENQINFSVLTYSLKNQLDSYINKEHYMPLTAESGFHVWIANISKQVDFKTFTDYQDYLVRLSLLPAYFSQQTYWMKKGLKSGISQPKIVLKGFEQSIAAYIKEDVTESSYYQPFNKMSAFITTSQKKDLQQQAKQVLSTKVMPAYTAYYDFMVNVYQPNARDNIAAISLPNGKEYYQNRLVHYTTLPMTATEVHQQGVGEVKRIRVEMNAIIEQVNFDGSFSEFVEFLRTDPQFYASTPTELLKEASFIAKKMDAKLPRLFKTLPRTPYGVMAVPANIAPKYTTGRYAGSSRDDQPGNYWVNTYRLDRRPLYVLTALTLHEAVPGHHLQISLAKEMKDVAKFRNRSYISAFGEGWGLYSEYLGIEAGMYEDPYHNFGRLTYEMWRACRLVVDTGMHTQGWSREQAMDFLASNTALSLHNVKTEIDRYISWPGQALSYKIGELTIKRLRKEAEQTLGEDFDLREFHDQILKHGSMPLSMLDKIITQYINDKDNSVTK	not soluble
KYSLLEIGLKKDNGSSETIKLKREAIKFENNTVKSYIIKDAKKIGYISIPSFYSDDSNPNALGAANELSKEILKLKNENIEGLIIDLRNNGGGSLYEAVGMSGLFIDIGPLFYVLERSGKATLTKDMNRGTVYDGPLCIMVNGYSASASEIFSAAMQDNHRALIVGEQTYGKATGQSISQLDTTKSISTFSATDNMGATKITEIKLYRTSGFSYQGKGVTPDIILPYL	not soluble
MKYTKGTYSSSAKGHSSNVNLTVNFDSDKIKNVSINVEGETSQRNKDVVSQLSAQILKKQDDSLDAVTGATETSNAVRRALTDCIKQATGDTENQTKTPLKDGTYTETVPSYSLIAPMTGEVTIKNNKIKNIKITSEKDSQTSPWFHVAEKKFIPRLIESQSLDTDAVTGASVSSGAIKSIAEKAIKDAGGNNDEWHTPVTKKNDTVEKKDFDVIVVGLGGSGILSYCAAAKSGAKVFGLDIAAGIGGNSISTSGPMVVNSKIQSKKYNDGKDNIDPEDLYNTWIDYVKTDKKAAVIKKAIYEDGPALDYYMKNFGFSFDSPAFGMPAGYFPSFVRQDWTKEWAVYTAKDNKWYSAGQPVHIDQYQNALDKAKGMNPVNDYQLELAAKDFIKDDSGKVIGVKAVSYDGTTYNIYGRAVILASGGFVGNNQMMKDVYGHTCHTFGSTTAKGQGIKMGQSIGGNTYALRTLPMIHISQVPNIIRDDSLTPDQKATLSALAITSDAKQIDETGNILGSKDESGIEESKLTVGIAYAPGFHYFNAYTKEDLDKMKNEGVSETTSKVVVIILDQGGKVPAAHTPIKDIDKIVDEAIKHGDAWKGTPSELAKQLNMDEAKLTKSLGDPNKEYYLFEAAGYAYATCGGLDVDEDMNVLRQDGSKIENVFAVGQDSEGVENRNDEAYTPWGGQAQAWTFVSGKIAGENAAKILEHHHHHH	soluble
MAHHHHHHMPSLFDPLTIGDLTLANRIIMAPLTRARAGDTRTPNALMARYYAERASAGLIISEATSVTPQGVGYASTPGIWSPEQVDGWRLVTDAVHAAGGRIFLQLWHVGRVSDPVFLDGALPVAPSAIAPGGHVSLVRPQRPYVTPRALELDEIPGVVAAFRRGAENARAAGFDGVEVHGANGYLLDQFLQDSANRRTDAYGGSIENRARLLLEVVDAAIDVWSAARVGVHLAPRGDAHTMGDSDPAATFGHVARELGRRRIAFLFARESFGGDAIGQQLKAAFGGPFIVNENFTLDSAQAALDAGQADAVAWGKLFIANPDLPRRFKLNAPLNEPNAATFYAQGEVGYTDYPALESAA	soluble
MAHHHHHHMTQSVSIGADHRLEATTSDCVSSVCFSPKECPMLMTGVASWDGSCSIWQVARNPAGAVISQPAWTTTHDSPLLTMSFSADGRVFFGGCSKTAVMWDLNSNQKAVVASHDLPISCLDFLTLPQTMSQMLITGSWDGKLRWWDLRQQSYVREENLGEPVFALDAQKTVPMMAAATGRLAHVYDVQQMQKVNELKLPDVMKFNLRCITCAPQYDGVGVGSSEGRVSFISMKDAPGCTFKAHITTEKSHYILSQTNFCVHHPTLPLLLSGGGDGNLTVINRADRKVIKTLQCEQKVGTQAIPISAGDISADGSLVAYAHSYDWAMGKSGYRNQPTSVHIRPLS	not soluble
MAAQIPIVAATSTPAVARNSKKRPASPSHNSSGGGYGASKKKKLSASGFAQGVSIEAMNESKMASSELSSGPVEKAAKPLPFKDPNFVHSGHGGAVAGKKNRTWKNLKQILAAERALPWQLNDPNYFSIDAPPSFKPAKKYSDISGLLANYTDPQSKLRFSTVEEFSYIRRLPSDVVTGYLALRKATSIVP	not soluble
MGSDKIHHHHHHMRLLSQVNLNSLKIVESAARHGNFTRAGEEQFITASAVSQRVKSLEDQLRFKIFQRGGNAVSLTPEGETYVSRVREALERIVAASMEATGQSQEHVLKISVLPTFAARWLFPRLPEFQRRYPDIVMRVSTSYATHEFSTSDFDLEIRYGDGHFNGLPSDLLFREDLTPVCSRKLFHEVLGDKPVSKVEPDDLRHFTLLHSDTCTQNWQSWLGFAGASFVLSETKSIYFDSCMMSYEAANAGMGFAVANRAYMASDIRAEKLVAPFAVHHPNSAGWYFVSPHKCLAARKVLLFKQWVMAEAALTQRQLDSEIRDLATEAV	not soluble
MHHHHHHSSGVDLGTENLYFQSNAMANPLYHKHIISINDLSRDELELVLRTAASLKKTPQPELLKHKVIASCFFEASTRTRLSFETSIHRLGASVVGFSDSSNTSLGKKGETLADTMSVISTYVDAIVMRHPQEGASRLAAQFSGNVPIVNAGDGANQHPTQTLLDLFTIQETQGRLDNINIAMVGDLKYGRTVHSLTQALAKFNGNHFFFIAPDALAMPAYILQMLEEKEIEYSLHESLEEVVPELDILYMTRVQKERLDPSEYANVKAQFILRSSDLTGARDNLKVLHPLPRIDEITTDVDKTPYAYYFQQAGNGIFARQALLALVLNAELAL	soluble
MGSDKIHHHHHHVPNFLPINTILVPQGAEYKAVCRGLNGVTGSIPTVVAIPVGMKPLLKYLHQGQFLAPKSRVLIMGICGSLSDRYRVGDIVLYQDCIYQGKLLECDRTFTAQLHSSLSEKVSLVKSLTSDRMIWSAAEKLHLGETLAADVVDMEGFTALEFFNVGGVAVTMLRVVSDDCQHDIPDLTSAINSDGSLNPFSLAMAMLRQPLAATRLIRGSLTALKVLEQVTNMLFSGNRPE	not soluble
MSININRQNMHKMLQYKRRCIMYINTGYLNHSHKDFKDKSRPLIVGSCGTYRLSQHPKMPTYRPRGRLDYQIIYISSGLVHFHFDNPENETIIPAGHIVLFRPKELQKYEFYGKDKTQIYWLHFTGSDVKNTLRKYGFTDNKRVFNVGTSLEYEQVFKRIITELQRCQDNYEEMLMLLLRHLLIIFNRKITTEHVIRNEFLDSQMDTAITYFNTNYNRSINVEEYASSIGMSISWFIRSFRKYTGNTPVQFLTALRMTNAQVLLETTSYSINEIAGIVGYNNPLYFSRLFHKQKGCSPSEYRARNT	not soluble
MPILEEPHESRTITLPPRPARLGGRCDVLVVGGGPAGFAAAVGAADAGADTVLVERYGFLGGNATAALVMPLMSFHNEHKQAAFTEAGDTSRLLPTDHGEGEPVVAGVLWQLLDRLTGRGGCLPPSPKTGYTVPFDPELFKFCLLEMADESGVRMLFHSFASGALPLDDGPGWRVVFETKSGPVVIDAGVVVDGTGDGDVAAACGAPYEVGRPEDGLVQPMTLMFRVADFARPDFAAYVREHPDQWRGVHGLWDLIEEARKNGELRLPREDILFFATPHPHEVAVNSTRVNRVLGTSVWDLTRAEYTARHQLAEIDRFLRTRVPGFEESYVVQSGTHVGVRESRRVVGDHRLTGHDILAARTFPDVIAHGAYPVDIHNPRGSGTVLKRVPRGSFYDIPLRCLLPRDTDRLLVAGRCISGTHVAHSSYRVMPIAMATGHAAGVCAALTVRHGSGPRGLPYRLVQRELLRQGARLRTEPHLEHHHHHH	not soluble
MKIALINENSQASKNHIIYDSLKEATDKKGYQLFNYGMRGEEGESQLTYVQNGLMAAILLNTKAVDFVVTGCGTGVGAMLALNSFPGVVCGLAVDPTDAYLYSQINGGNALSIPYAKGFGWGAELTLKLMFERLFAEEMGGGYPRERVIPEQRNARILNEVKQITHNDLMTILKIIDQDFLKDTISGKYFQEYFFENCQDDEVAAYLKEVLA	not soluble
MAHHHHHHMDSMPPLSSPCLVEQEARQVPAGCFTRAVYALHSTDNEQTETAALTVRKLIKEEDQGMMRGAASSQIPLKRKGSKTNSAKSKYGKSGKLGRSSVVSWNLKSAPKITKAAGVTSANNNENREYVSPIVWCPVTPLMDNIYRSKWRQPMGRASSQAIDNEKNICIDETNVGENDLCMCKDVEAQFVLRGGERIYTLHYVTPLSMKRRETNEENSMCYGVLPVIRICVNPPVTP	not soluble
